The values that follow come from patent US20210130436A1.

Numbering of substitutions follows the chain as printed. Names may count otherwise.

Assay [1] addresses T1, CD96 (UniProt P40200).
T1 sequence (looked up): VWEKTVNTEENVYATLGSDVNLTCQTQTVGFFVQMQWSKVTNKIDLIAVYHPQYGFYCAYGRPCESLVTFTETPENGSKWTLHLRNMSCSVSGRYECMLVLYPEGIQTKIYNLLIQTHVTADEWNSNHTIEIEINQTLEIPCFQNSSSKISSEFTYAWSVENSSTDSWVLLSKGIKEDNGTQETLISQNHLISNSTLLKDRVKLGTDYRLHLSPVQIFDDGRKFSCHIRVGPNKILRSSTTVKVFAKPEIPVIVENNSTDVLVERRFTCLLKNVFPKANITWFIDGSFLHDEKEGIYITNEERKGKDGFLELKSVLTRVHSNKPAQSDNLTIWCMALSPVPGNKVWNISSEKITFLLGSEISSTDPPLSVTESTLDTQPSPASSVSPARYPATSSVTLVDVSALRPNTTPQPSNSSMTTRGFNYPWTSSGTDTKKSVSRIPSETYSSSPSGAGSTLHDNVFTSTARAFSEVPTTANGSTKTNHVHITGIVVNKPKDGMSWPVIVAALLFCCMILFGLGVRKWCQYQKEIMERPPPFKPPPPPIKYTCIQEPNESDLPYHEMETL
Description: flow cytometry, Fc fusion at 100 nM, CD96-transfected cells. On the technique in general: A flow cytometer gives signals particle by particle.

For assay [2], the target named is T1, CD96. Description: flow cytometry, MFI ratio to WT CD155 ECD-Fc, CD96-transfected cells.
Assay [3] addresses T2, CD226 (Homo sapiens (Human)) (UniProt Q15762).
T2 sequence: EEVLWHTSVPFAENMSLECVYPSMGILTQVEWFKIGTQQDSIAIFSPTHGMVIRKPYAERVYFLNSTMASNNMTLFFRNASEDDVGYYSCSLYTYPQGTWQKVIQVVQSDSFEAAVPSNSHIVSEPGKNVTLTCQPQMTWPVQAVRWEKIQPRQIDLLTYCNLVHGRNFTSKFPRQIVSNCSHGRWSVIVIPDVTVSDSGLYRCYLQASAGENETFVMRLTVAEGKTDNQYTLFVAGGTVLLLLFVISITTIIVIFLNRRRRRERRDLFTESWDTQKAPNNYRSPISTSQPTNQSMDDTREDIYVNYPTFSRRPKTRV
As to the kind of experiment: flow cytometry on CD226-expressing cells, Fc fusion at 100 nM.

Assay [4] concerns the target human PD-L1, full length, expressed on transfected HEK293 cells (human) (UniProt Q9NZQ7). As to the kind of experiment: flow cytometry, HEK293 cells transfected with human PD-L1.
The target of assay [5] is PD-1 (PDCD1) (Homo sapiens (Human)) (UniProt Q15116). As to the kind of experiment: cell-based or functional assay.
Chain of PD-1 (PDCD1) (Homo sapiens (Human)) (Q15116 21-288): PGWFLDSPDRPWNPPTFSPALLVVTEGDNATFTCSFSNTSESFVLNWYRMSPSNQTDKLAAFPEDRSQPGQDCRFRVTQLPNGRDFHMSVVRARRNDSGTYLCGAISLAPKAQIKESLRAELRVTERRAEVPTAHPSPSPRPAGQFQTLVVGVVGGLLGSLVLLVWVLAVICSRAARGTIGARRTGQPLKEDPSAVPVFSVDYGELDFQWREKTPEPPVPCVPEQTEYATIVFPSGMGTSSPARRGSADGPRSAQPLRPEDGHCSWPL
For assay [6], the target named is T3, CD112R, Q6DKI7.
T3 chain: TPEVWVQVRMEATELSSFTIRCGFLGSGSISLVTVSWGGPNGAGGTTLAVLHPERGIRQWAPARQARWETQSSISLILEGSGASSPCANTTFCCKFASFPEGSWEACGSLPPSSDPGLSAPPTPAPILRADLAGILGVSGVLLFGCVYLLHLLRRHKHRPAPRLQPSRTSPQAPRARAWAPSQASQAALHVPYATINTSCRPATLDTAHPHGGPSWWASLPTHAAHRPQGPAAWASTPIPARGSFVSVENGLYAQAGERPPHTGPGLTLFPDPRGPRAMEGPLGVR
Description: flow cytometry, cells expressing CD112R, 20 nM. The note with it: remark: other sources report otherwise.

Chain of human PD-L1, full length, expressed on transfected HEK293 cells (human) (Q9NZQ7 19-290): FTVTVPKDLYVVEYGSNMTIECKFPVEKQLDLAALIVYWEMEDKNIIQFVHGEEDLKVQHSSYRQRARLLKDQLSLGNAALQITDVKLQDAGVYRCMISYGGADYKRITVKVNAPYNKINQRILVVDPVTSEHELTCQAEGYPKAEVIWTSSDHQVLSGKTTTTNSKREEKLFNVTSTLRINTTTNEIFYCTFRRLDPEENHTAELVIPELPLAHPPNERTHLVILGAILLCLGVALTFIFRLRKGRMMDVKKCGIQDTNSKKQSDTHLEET

B1: variant CD155 IgV-Fc G111R (Fc fusion, not shown: a dimerising Fc or GST)
chain: WPPPGTGDVVVQAPTQVPGFLGDSVTLPCYLQVPNMEVTHVSQLTWARHGESGSMAVFHQTQGPSYSESKRLEFVAARLGAELRNASLRMFGLRVEDEGNYTCLFVTFPQRSRSVDIWLRVL
In the case of B1, the MFI at 100 nM in assay [1] is 3320 MFI. The Fold ↑ to WT ECD in assay [2] worked out at 0.03 fold.

B2: CD155 P18S/T45S/T61K/S65W/S67A/F91S/G111R IgV-Fc (Fc fusion, not shown: a dimerising Fc or GST)
chain: B1 chain with P18S, T45S, T61K, S65W, S67A, F91S
For the molecule B2, in assay [3], the MFI at 100 nM came out at 2110 MFI.

B3: variant CD80 IgV-Fc A12T/E24D/E35D/D46V/I61V/L72P/E95V (Fc fusion, not shown: a dimerising Fc or GST)
chain: VIHVTKEVKEVTTLSCGHNVSVEDLAQTRIYWQKDKKMVLTMMSGVMNIWPEYKNRTIFDVTNNLSIVILAPRPSDEGTYECVVLKYEKDAFKRVHLAEVTLSVKAD
In assay [4], B3 displayed an MFI at 22.2 nM of 1220 MFI.

B4: PD-L2 I13V/H15Q/T47A/S67L/Q72H/R76G/Q82R/V89D IgV-Fc (Fc fusion, not shown: a dimerising Fc or GST)
chain: SEQLFTVTVPKELYIVEQGSNVTLECNFDTGSHVNLGAITASLQKVENDASPHRERATLLEEQLPLGKALFHIPHVQVGDEGQYRCIIIYGDAWDYKYLTLKVKA
In the case of B4, in assay [5], the Fold increase over wildtype PD-L2 IgV-Fc (IFN gamma, MLR) was determined as 1.13 fold and the IFN gamma levels pg/mL (MLR) worked out at 1560 pg/mL.

B5: WT CD112-Fc ECD, Q92692 32-360 (Fc fusion, not shown: a dimerising Fc or GST)
chain: QDVRVQVLPEVRGQLGGTVELPCHLLPPVPGLYISLVTWQRPDAPANHQNVAAFHPKMGPSFPSPKPGSERLSFVSAKQSTGQDTEAELQDATLALHGLTVEDEGNYTCEFATFPKGSVRGMTWLRVIAKPKNQAEAQKVTFSQDPTTVALCISKEGRPPARISWLSSLDWEAKETQVSGTLAGTVTVTSRFTLVPSGRADGVTVTCKVEHESFEEPALIPVTLSVRYPPEVSISGYDDNWYLGRTDATLSCDVRSNPEPTGYDWSTTSGTFPTSAVAQGSQLVIHAVDSLFNTTFVCTVTNAVGMGRAEQVIFVRETPNTAGAGATGG
B5: in assay [6], the Fold Increase to WT IgV is 0.75 fold and the MFI at 20 nM amounted to 1250.

B6: PD-L2 H15Q/S39I/E44D/Q72H/V75G/R76G/Q82R/V89D IgV-Fc (Fc fusion, not shown: a dimerising Fc or GST)
chain: LFTVTVPKELYIIEQGSNVTLECNFDTGSHVNLGAITAILQKVDNDTSPHRERATLLEEQLPLGKASFHIPHVQGGDEGQYRCIIIYGDAWDYKYLTLKVKA
As for B6, the IFN gamma levels pg/mL (MLR) in assay [5] is 941 pg/mL.

B7: PD-L2 H15Q/T47A/S67L/R76G/Q82R/V89D IgV-Fc (Fc fusion, not shown: a dimerising Fc or GST)
chain: B6 chain with I39S, D44E, T47A, S67L, H72Q, G75V
On to B7, for which the IFN gamma levels pg/mL (MLR) in assay [5] was found to be 1100 pg/mL.
